For assay [1], the target named is T1, VEGF165 (Homo sapiens, UniProt P15692).
T1 construct: purchased Abcam ab56620
T1 sequence (P15692 27-191 isoform P15692-4): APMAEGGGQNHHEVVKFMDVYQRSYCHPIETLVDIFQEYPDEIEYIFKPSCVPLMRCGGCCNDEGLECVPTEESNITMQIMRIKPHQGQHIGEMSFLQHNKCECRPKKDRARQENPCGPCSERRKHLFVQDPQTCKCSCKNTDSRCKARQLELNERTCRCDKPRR
Nature of the assay: direct solid-phase ELISA, binding of capture agents to VEGF165. The note with it: immobilized VEGF165; KD estimated as concentration at half-maximal fluorescent emission. How it is done:
The equilibrium dissociation constant (KD) for the capture agents may be estimated as the concentration corresponding to half-maximal fluorescent emission. Assaying multiple capture agents in parallel permits relative and absolute comparison of in vitro binding.
After washing each well with PBS (3×), the plate was filled with 5% non-fat dry milk in TBS (25 mM Tris, 150 mM NaCl, pH 7.25) containing 0.1% (v/v) Triton X-100 and blocked for 2 hours at 25° C. […] After washing all microwells with TBS/0.1%(v/v) Triton X-100 (5×), 0.1 μg/mL Streptavidin Poly-HRP conjugate (Pierce, Ill.) in TBS/0.1%(v/v) Triton X-100 was incubated for 30 minutes at 25° C. The plate was aspirated and washed with TBS/0.1% (v/v) Triton X-100 (5×), followed by TBS (5×), and then developed by adding QuantaRed^TM Enhanced Chemifluorescent HRP Substrate. Using an excitation wavelength of 535 nm, fluorescent emission at 595 nm was recorded by Beckman Coulter DTX880 photometer (Brea, Calif.) as a function of capture agent concentration. The titration curves were fit using a four-parameter regression curve fitting program (Origin 8.5, Northampton, Mass.).

Assay [2] addresses T1, VEGF165. Briefly: pull-down (immunoprecipitation) of VEGF165 from spiked buffer or human serum, Western blot and silver stain. It counts as binding. The conditions noted are these: VEGF165-spiked buffer (B) vs 25% human serum (S). How it is done: A pull-down assay was used to assess capture agent specificity for VEGF by measuring the ability of the capture agents to purify VEGF165 from buffer or complex media such as human serum. Capture agents were immobilized on streptavidin-functionalized magnetic beads, and the resultant resins were panned with VEGF165-spiked serum or buffer.
Pull-down detection of VEGF165 was performed using a modified immunoprecipitation technique that incorporated capture agents rather than antibody. […] A vehicle-only control (0.1% DMSO, v/v) accompanied each sample.
Proteins were captured by BSA-blocked Dynabeads® M-280 Streptavidin (Invitrogen, #112-05D) under rotation at 4° C. for 4 hours (100 μL of 50% slurry per pull-down condition). Beads were separated from the serum or buffer matrix by application of the DynaMag™-Spin magnet (Invitrogen, #123-20D), and captured proteins were eluted from the beads in 30 μL of reducing Laemmli buffer. Eluted samples were subjected to 12% SDS-PAGE separation at 200 V for 30 minutes in 1×TGS (25 mM Tris, 192 mM Glycine, 0.1% SDS (w/v), pH 8.3). Samples were subsequently electrophoretically transferred to a nitrocellulose membrane in 25 mM Tris, 192 mM Glycine, pH 8.3, containing 20% (v/v) methanol (Bio-Rad Laboratories, Hercules, Calif.) at 100 V for 45 minutes. […]

For assay [3], the target named is T2, VEGF165 binding to Avastin® Fab (Homo sapiens, UniProt P15692).
T2 construct: biotin (chemical labelling)
T2 sequence (P15692 27-191 isoform P15692-4): T1 sequence (P15692 27-191 isoform P15692-4)
Nature of the assay: competitive ELISA, inhibition of VEGF165 binding to Avastin Fab. The conditions noted are these: 10 nM biotinylated VEGF165, Avastin Fab coated plate. How it is done:
Using an excitation wavelength of 535 nm, fluorescent emission at 595 nm was recorded by Beckman Coulter DTX880 photometer (Brea, Calif.) as a function of capture agent concentration. The titration curves were fit using a four-parameter regression curve fitting program (Origin 8.5, Northampton, Mass.). Concentrations of peptides corresponding to the midpoint absorbance of the titration curve were calculated and used as the IC50 values.

The values below come from patent US8710180B2, “VEGF-specific capture agents, compositions, and methods of using and making” (Indi Molecular, Inc., priority 2011, dated 2014).

What is called Kd is the constant that tells how readily two partners part at equilibrium. What is called IC50 is the concentration that inhibits the measured activity by half. The low end stands for greater potency in that assay, the high end for weaker potency in that assay. As for “X-VEPNCDIHVMWEWECFERL-Tz4-lfrew-Tz4-eeird [Triligand 2]”, the dissociation constant Kd with VEGF165 [1] is around 0.015 µM. Moreover, the “capture of VEGF in buffer vs. serum” value with VEGF165 [2] was “captures equivalent amounts of VEGF in buffer and serum”. The same substance had an IC50 in assay [3] of 0.4 µM.
